The target in assay [1] is T1, human Claudin18.2 (human).
T1 construct: also called hClaudin18.2; huClaudin18.2
Put plainly: cell-based ELISA on fixed NUGC4 cells stably expressing Claudin18.2. On the procedure:
(§1) Cell-based ELISA assay was used to test the binding properties of the Claudin18.2 antibodies. The stably transfected Claudin18.2-expressing NUGC4 cells were cultured in a 96-well cell plate (Corning, 3599). When growing at 90% density, the cells were immobilized with 4% paraformaldehyde for 1 h. The plate was washed 3 times with PBST buffer (pH 7.4 PBS containing 0.05% Tween-20), and a PBS-diluted 5% skim milk (powdered skim milk from Brightdairy) blocking solution was added at 200 μL/well. The plate was incubated in a 37° C. incubator for 2.5 h or was let stand at 4° C. overnight (16-18 h) for blocking. After blocking, the blocking solution was removed. The plate was washed 3 times with the PBST buffer, and then a test antibody that was diluted with a sample diluent (pH 7.4 PBS containing 1% skim milk) to different concentrations was added at 50 μL/well. The plate was incubated in a 37° C. incubator for 2 h. […] The plate was incubated at 37° C. for 1 h. The plate was washed 6 times with PBST, and then TMB chromogenic substrate (KPL, 52-00-03) was added at 50 µL/well. The plate was incubated at room temperature for 10-15 min, and the reaction was terminated by adding 1 M H₂SO₄ at 50 μL/well. The absorbance at 450 nm was read using an MD Versa Max™ microplate reader, and the binding EC50 value of the Claudin18.2 antibody to Claudin18.2 was calculated.
In general terms: ELISA stands for enzyme-linked immunosorbent assay.

Assay [2] concerns the target T1, human Claudin18.2. Kind of assay: cell-based ELISA (absorbance at 450 nm) on fixed NUGC4 cells stably expressing Claudin18.2. The method, then: as §1
Assay [3] deals with T1, human Claudin18.2. Put plainly: cell-based ELISA on fixed NUGC4 cells stably expressing Claudin18.2. The method, then:
as §1
This is another data set of the same source.

Assay [4] has as its target T1, human Claudin18.2. Put plainly: flow cytometry on HEK293/hClaudin18.2 cells, Scatchard plot. The method, then: On the day of experiment, HEK293/hClaudin18.2 cells were collected into a U-bottomed 96-well plate at 1×10⁵ to 2×10⁵ cells per well. A human Claudin18.2 antibody that was 2× diluted serially (12 concentration points) from an initial concentration of 5 μg/mL was added, and the plate was incubated at 4° C. for 1 h. IMAB362 was used as a positive control, and a negative control with no antibody was also provided. The antibody was removed by centrifugation, and FITC anti-human IgG Fc antibody (200×) was added at 100 μL/well. The plate was incubated in the dark at 4° C. for 30 min and washed twice with PBS+2% FBS before flow cytometry analysis. BD FACS CantoII was started and preheated, and then the BD FACSDiva software was run to start a new experiment. […] The samples in the U-bottomed 96-well plate were tested at the saved voltage, and data were recorded. The experimental data were analyzed using Flowjo software to obtain a Geo mean, and an MESF-Geo Mean standard curve was fit according to the instructions for Quantum™ FITC-5 MESF Kit. The molar concentration of the human Claudin18.2 antibody bound to HEK293/hClaudin18.2 cells and the free antibody concentration were calculated according to the concentration fluorescence value of the FITC anti-human IgG Fc antibody, and the Bmax and the dissociation constant KD of the antibody were calculated through Scatchard plots.

For assay [5], the target named is T1, human Claudin18.2. Kind of assay: cell-based or functional assay.
The target in assay [6] is T1, human Claudin18.2. Put plainly: cell-based ELISA (absorbance at 450 nm) on fixed NUGC4 cells stably expressing Claudin18.2. On the procedure:
as §1
This is another data set of the same source.

In assay [7] the target is T1, human Claudin18.2. Put plainly: cell-based or functional assay. The source holds these as a separate data set.
The target of assay [8] is T1, human Claudin18.2. Put plainly: cell-based ELISA (absorbance at 450 nm) on fixed NUGC4 cells stably expressing Claudin18.2. The method, then: as §1
The source holds these as a separate data set.

The target in assay [9] is T1, human Claudin18.2. Kind of assay: cell-based ELISA on fixed NUGC4 cells stably expressing Claudin18.2. The method, then:
as §1
The source holds these as a separate data set.

Where a chain is given by its changes, count along the chain named. Where two headings read alike, the source gives them in different places. Bounds are passed on as bounds.

B1: chimeric antibody ch1901 (antibody, human IgG1, kappa, V domains shown)
VH: EVQLMESGGGLVKPGGSLKLSCAASGFTFSDYGIHWVRQAPEMGLEWIAYISRGSSTIYYADTVKGRFTMSRDNAKNTLFLQMTSLRSEDTAMYYCARGGYDTRNAMDYWGQGTSVTVSS
VL: DIVMTQSPSSLSVSAGEKVTMSCKSSQSLLNSGNQKNYLAWYQQKPGQPPKLLIYGASTRASGVPDRFTGSGSGTDFTLTISSVQAEDLAIYHCQNDLYYPLTFGAGTKLELKR
notes: Murine mAb1901 variable regions on human IgG1 / kappa constant regions
On to B1, for which, in the assay with human Claudin18.2 [1], the EC50 stood at 0.098 nM. The Emax with human Claudin18.2 [2] is 1.4.

B2: h1901-11 (antibody, human IgG1, kappa, V domains shown)
VH: EVQLVESGGGLVQPGGSLRLSCAASGFTFSDYGIHWVRQAPGKGLEWIAYISRGSSTIYYADTVKGRFTISRDNAKNSLYLQMTSLRAEDTAVYYCARGGYDTRNAMDYWGQGTTVTVSS
VL: DIVMTQSPDSLAVSLGERATISCKSSQSLLNSGNQKNYLAWYQQKPGQPPKLLIYGASTRASGVPDRFSGSGSGTDFTLTISSLQAEDVAIYHCQNDLYYPLTFGQGTKLEIKR
notes: Humanized antibody of mAb1901, L3 + H3, human IgG1/kappa
In the assay with human Claudin18.2 [3], B2 came in with an EC50 of 0.076 nM. The same molecule returned a Kd in the assay with human Claudin18.2 [4] of 6.8 nM. Besides, in the assay with human Claudin18.2 [5], the “ADCC effect, IC50 (FcrR3A-V158-NFAT-RE-Jurkat reporter; NUGC4 cells, high Claudin18.2 expression)” value is 26.2 ng/mL; the “ADCC effect, IC50 (FcrR3A-V158-NFAT-RE-Jurkat reporter; NUGC4 cells, low Claudin18.2 expression)” value was determined as 22.4 ng/mL; the “ADCC effect, IC50 (FcrR3A-V158-NFAT-RE-Jurkat reporter; NUGC4 cells, moderate Claudin18.2 expression)” value turned out to be 15.3 ng/mL. The molecule also came in with an Emax with human Claudin18.2 [6] of 1.44.

B3: ADC-4 (antibody, human IgG1, kappa, V domains shown)
VH: B2 VH
VL: B2 VL
modifications: compound 9-A coupled to sulfhydryl groups after TCEP reduction; mean drug loading n=4.06 per antibody; positions not given
In the case of B3, in the assay with human Claudin18.2 [7], the “in vitro cell killing EC50, NUGC4-claudin18.2 high expression cells (CellTiter-Glo)” value came to 12 nM; the “in vitro cell killing EC50, NUGC4-claudin18.2 low expression cells (CellTiter-Glo)” value is 299 nM; the “in vitro cell killing Emax, NUGC4-claudin18.2 high expression cells (CellTiter-Glo)” value amounted to 85; the “in vitro cell killing Emax, NUGC4-claudin18.2 low expression cells (CellTiter-Glo)” value came to 61.

B4: ADC-2 (antibody, human IgG1, kappa, V domains shown)
VH: B2 VH
VL: B2 VL
modifications: compound 9-A coupled to sulfhydryl groups after TCEP reduction; mean drug loading n=7.1 per antibody; positions not given
B4: in the assay with human Claudin18.2 [7], the “in vitro cell killing EC50, NUGC4-claudin18.2 high expression cells (CellTiter-Glo)” value came to 1.9 nM; the “in vitro cell killing EC50, NUGC4-claudin18.2 low expression cells (CellTiter-Glo)” value was 109 nM; the “in vitro cell killing EC50, NUGC4-claudin18.2 moderate expression cells (CellTiter-Glo)” value stood at 16.8 nM; the “in vitro cell killing Emax, NUGC4-claudin18.2 high expression cells (CellTiter-Glo)” value is 91.1. In addition, the “in vitro cell killing Emax, NUGC4-claudin18.2 low expression cells (CellTiter-Glo)” value with human Claudin18.2 [7] was determined as 69.8.

B5: ADC-5 (antibody, human IgG1, kappa, V domains shown)
VH: B2 VH
VL: B2 VL
modifications: compound 9-A coupled to sulfhydryl groups after TCEP reduction; mean drug loading n=6.8 per antibody; positions not given
With B5, in the assay with human Claudin18.2 [7], the “in vitro cell killing EC50, NUGC4-claudin18.2 high expression cells (CellTiter-Glo)” value came to 3.5 nM; the “in vitro cell killing EC50, NUGC4-claudin18.2 low expression cells (CellTiter-Glo)” value was 142 nM; the “in vitro cell killing Emax, NUGC4-claudin18.2 high expression cells (CellTiter-Glo)” value came out at 95.9; the “in vitro cell killing Emax, NUGC4-claudin18.2 low expression cells (CellTiter-Glo)” value was found to be 69.9.

B6: ADC-3 (antibody, human IgG1, kappa, V domains shown)
VH: B2 VH
VL: B2 VL
modifications: compound 9-A coupled to sulfhydryl groups after TCEP reduction; mean drug loading n=2.51 per antibody; positions not given
In the case of B6, in the assay with human Claudin18.2 [7], the “in vitro cell killing EC50, NUGC4-claudin18.2 high expression cells (CellTiter-Glo)” value amounted to 94 nM; the “in vitro cell killing EC50, NUGC4-claudin18.2 low expression cells (CellTiter-Glo)” value is over 500 nM; the “in vitro cell killing Emax, NUGC4-claudin18.2 high expression cells (CellTiter-Glo)” value amounted to 78.7; the “in vitro cell killing Emax, NUGC4-claudin18.2 low expression cells (CellTiter-Glo)” value amounted to 49.

B7: h1901-12 (antibody, human IgG1, kappa, V domains shown)
VH: B2 VH with I48V, I70M
VL: B2 VL
notes: Humanized antibody of mAb1901, L3 + H4, human IgG1/kappa
For B7, a half-maximal response in the assay with human Claudin18.2 [3] (EC50) required 0.116 nM. The molecule further displayed an Emax in the assay with human Claudin18.2 [6] of 1.22.

B8: IMAB-362 (antibody, human IgG1, kappa, V domains shown)
VH: QVQLQQPGAELVRPGASVKLSCKASGYTFTSYWINWVKQRPGQGLEWIGNIYPSDSYTNYNQKFKDKATLTVDKSSSTAYMQLSSPTSEDSAVYYCTRSWRGNSFDYWGQGTTLTVSS
VL: DIVMTQSPSSLTVTAGEKVTMSCKSSQSLLNSGNQKNYLTWYQQKPGQPPKLLIYWASTRESGVPDRFTGSGSGTDFTLTISSVQAEDLAVYYCQNDYSYPFTFGSGTKLEIKR
notes: Positive control antibody, from WO2016166122; also called positive control antibody
B8: the EC50 with human Claudin18.2 [3] was determined as 0.086 nM; with human Claudin18.2 [1], 0.108 nM; with human Claudin18.2 [9], 0.187 nM. Moreover, the Kd with human Claudin18.2 [4] was determined as 10.2 nM. In addition, the “ADCC effect, IC50 (FcrR3A-V158-NFAT-RE-Jurkat reporter; NUGC4 cells, high Claudin18.2 expression)” value with human Claudin18.2 [5] amounted to 133 ng/mL. For the same molecule, the “ADCC effect, IC50 (FcrR3A-V158-NFAT-RE-Jurkat reporter; NUGC4 cells, low Claudin18.2 expression)” value in the assay with human Claudin18.2 [5] was 183 ng/mL. The “ADCC effect, IC50 (FcrR3A-V158-NFAT-RE-Jurkat reporter; NUGC4 cells, moderate Claudin18.2 expression)” value in the assay with human Claudin18.2 [5] stood at 210 ng/mL. For the same molecule, the Emax with human Claudin18.2 [8] turned out to be 0.88; in the assay with human Claudin18.2 [6], 1.11; in the assay with human Claudin18.2 [2], 1.18.

B9: chimeric antibody ch1902 (antibody, human IgG1, kappa, V domains shown)
VH: EVQLQESGAELVKPGASVKLSCKASGYIFTSYWMHWVKQRPGQGLEWIGMIHPNSGSTNYNEKFKGKATLTLDKSSSTAYMQLSSLPSEDSAVYYCARLKTGNSFDYWGQGTTLTVSS
VL: B8 VL with M4L, V91I, D97A, S99T
notes: Murine mAb1902 variable regions on human IgG1 / kappa constant regions
In the case of B9, in the assay with human Claudin18.2 [1], the EC50 was 0.074 nM. For the same molecule, the Emax with human Claudin18.2 [2] amounted to 1.27.

The term EC50 denotes the concentration at which the effect is half-maximal. A lower EC50 goes with a more potent agent. In general, Kd refers to the equilibrium constant for the complex coming apart. Read a low Kd as a tighter complex.

Source of the values: patent publication US20240024498A1 (JIANGSU HENGRUI PHARMACEUTICALS, published 2024).
